Source: patent publication US20140087995A1 (published 2014)
Numbering of substitutions follows the chain as printed. Numbered stars: 1 amine (or outer) side, 2 acyl side, 3 side chain; on linkers, the order of the positions; unused ones are H or OH. Bridge positions count the residues as written; N and C are the ends. Side chains are listed from the residue outwards. Ends that are not written are not given here. * marks the point of attachment. C20 diacid = O=C(O)CCCCCCCCCCCCCCCCCCC(=O)*; γGlu = O=C(O)[C@H](CCC(=O)[*:2])N[*:1]; AEEA = NCCOCCOCC(=O)O

T1: human amylin 3(a) receptor (human calcitonin receptor plus RAMP-3) (human, UniProt P30988 25-474; O60896 24-148, limits assumed)
T1 sequence (looked up) 1: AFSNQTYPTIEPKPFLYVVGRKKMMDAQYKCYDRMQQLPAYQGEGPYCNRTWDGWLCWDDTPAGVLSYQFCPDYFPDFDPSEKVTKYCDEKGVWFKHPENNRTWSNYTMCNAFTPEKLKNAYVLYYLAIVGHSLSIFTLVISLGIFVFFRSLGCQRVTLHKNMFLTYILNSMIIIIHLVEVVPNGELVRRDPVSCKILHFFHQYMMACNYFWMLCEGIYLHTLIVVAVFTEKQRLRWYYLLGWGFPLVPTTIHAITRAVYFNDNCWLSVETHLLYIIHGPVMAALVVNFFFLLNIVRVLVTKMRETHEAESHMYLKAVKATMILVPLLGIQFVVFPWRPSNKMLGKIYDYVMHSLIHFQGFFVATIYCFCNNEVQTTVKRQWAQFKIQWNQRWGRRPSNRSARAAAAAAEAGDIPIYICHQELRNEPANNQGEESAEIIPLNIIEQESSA
T1 sequence (looked up) 2: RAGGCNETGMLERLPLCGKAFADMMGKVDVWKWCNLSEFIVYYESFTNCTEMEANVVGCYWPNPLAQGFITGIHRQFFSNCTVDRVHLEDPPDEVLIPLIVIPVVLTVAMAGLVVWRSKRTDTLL

T2: human calcitonin receptor (human, UniProt P30988 25-474)
T2 sequence (looked up): T1 sequence (looked up) 1

T3: human calcitonin receptor (human, UniProt P30988 25-474)
T3 sequence (looked up): T1 sequence (looked up) 1

T4: rat calcitonin receptor (rat, UniProt P32214 25-516)
T4 construct: whole, on cells; membranes of transiently transfected BHK tk'ts 13 cells (Assay VIII); also called rCTR; rat calcitonin (a) receptor
T4 sequence (looked up): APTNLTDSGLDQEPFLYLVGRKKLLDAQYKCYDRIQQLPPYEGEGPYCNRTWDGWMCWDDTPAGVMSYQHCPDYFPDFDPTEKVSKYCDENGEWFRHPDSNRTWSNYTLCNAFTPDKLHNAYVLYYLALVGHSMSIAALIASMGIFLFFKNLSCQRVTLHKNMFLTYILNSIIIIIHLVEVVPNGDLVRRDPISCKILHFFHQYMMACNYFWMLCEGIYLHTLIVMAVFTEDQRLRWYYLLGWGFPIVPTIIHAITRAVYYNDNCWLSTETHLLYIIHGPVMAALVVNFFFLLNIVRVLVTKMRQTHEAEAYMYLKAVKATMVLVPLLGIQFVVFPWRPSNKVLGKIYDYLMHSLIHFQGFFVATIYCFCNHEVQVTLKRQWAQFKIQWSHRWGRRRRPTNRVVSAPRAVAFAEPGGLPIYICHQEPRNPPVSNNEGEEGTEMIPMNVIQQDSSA

T5: rat amylin receptor (rat calcitonin receptor + rat RAMP 3) (rat, UniProt P32214 25-516; Q9JJ73 23-147)
T5 construct: whole, on cells; membranes of transiently transfected BHK tk'ts 13 cells (Assay VI); also called rAmylin-R; rat amylin 3(a) receptor
T5 sequence (looked up) 1: T4 sequence (looked up)
T5 sequence (looked up) 2: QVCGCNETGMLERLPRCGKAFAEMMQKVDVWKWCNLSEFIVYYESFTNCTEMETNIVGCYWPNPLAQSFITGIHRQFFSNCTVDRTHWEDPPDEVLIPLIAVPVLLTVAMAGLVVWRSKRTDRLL

B1: N^α1-[2-[2-[2-[[2-[2-[2-[[(4S)-4-carboxy-4-(19-carboxynonadecanoylamino)butanoyl]amino]ethoxy]ethoxy]acetyl]amino]ethoxy]ethoxy]acetyl]-[Glu14,Arg17,Pro21,Pro27 … (peptide)
peptide: KCNTATCATQRLAEFLRHSSPNFGAIPSSTNVGSNTY
modifications: C20 diacid-gGlu-2xOEG on the alpha amino group of the N-terminal residue (position 1); disulfide bridge Cys2-Cys7; C-terminal amide
notes: also called compound 19
B2: N^α1 N^α1-[(4S)-4-carboxy-4-[[(4S)-4-carboxy-4-(19-carboxynonadecanoylamino)butanoyl]amino]butanoyl]-[Glu14,Arg17,Pro21,Pro27]-h-amylin (peptide)
peptide: {C20 diacid-γGlu-γGlu}-KCNTATCATQRLAEFLRHSSPNFGAIPSSTNVGSNTY-NH2
modifications: disulfide 2-7
SMILES: CC[C@H](C)[C@H](NC(=O)[C@H](C)NC(=O)CNC(=O)[C@H](Cc1ccccc1)NC(=O)[C@H](CC(N)=O)NC(=O)[C@@H]1CCCN1C(=O)[C@H](CO)NC(=O)[C@H](CO)NC(=O)[C@H](Cc1c[nH]cn1)NC(=O)[C@H](CCCNC(=N)N)NC(=O)[C@H](CC(C)C)NC(=O)[C@H](Cc1ccccc1)NC(=O)[C@H](CCC(=O)O)NC(=O)[C@H](C)NC(=O)[C@H](CC(C)C)NC(=O)[C@H](CCCNC(=N)N)NC(=O)[C@H](CCC(N)=O)NC(=O)[C@@H](NC(=O)[C@H](C)NC(=O)[C@@H]1CSSC[C@H](NC(=O)[C@H](CCCCN)NC(=O)CC[C@H](NC(=O)CC[C@H](NC(=O)CCCCCCCCCCCCCCCCCCC(=O)O)C(=O)O)C(=O)O)C(=O)N[C@@H](CC(N)=O)C(=O)N[C@@H]([C@@H](C)O)C(=O)N[C@@H](C)C(=O)N[C@@H]([C@@H](C)O)C(=O)N1)[C@@H](C)O)C(=O)N1CCC[C@H]1C(=O)N[C@@H](CO)C(=O)N[C@@H](CO)C(=O)N[C@H](C(=O)N[C@@H](CC(N)=O)C(=O)N[C@H](C(=O)NCC(=O)N[C@@H](CO)C(=O)N[C@@H](CC(N)=O)C(=O)N[C@H](C(=O)N[C@@H](Cc1ccc(O)cc1)C(N)=O)[C@@H](C)O)C(C)C)[C@@H](C)O
notes: also called compound 15
B3: N{Alpha-1}-[(4S)-4-carboxy-4-(19-carboxynonadecanoylamino)butanoyl]-[Glu14,Arg17,Pro21,Pro27,Lys34]-h-amylin (peptide)
peptide: {C20 diacid-γGlu}-KCNTATCATQRLAEFLRHSSPNFGAIPSSTNVGKNTY-NH2
modifications: disulfide 2-7
SMILES: CC[C@H](C)[C@H](NC(=O)[C@H](C)NC(=O)CNC(=O)[C@H](Cc1ccccc1)NC(=O)[C@H](CC(N)=O)NC(=O)[C@@H]1CCCN1C(=O)[C@H](CO)NC(=O)[C@H](CO)NC(=O)[C@H](Cc1c[nH]cn1)NC(=O)[C@H](CCCNC(=N)N)NC(=O)[C@H](CC(C)C)NC(=O)[C@H](Cc1ccccc1)NC(=O)[C@H](CCC(=O)O)NC(=O)[C@H](C)NC(=O)[C@H](CC(C)C)NC(=O)[C@H](CCCNC(=N)N)NC(=O)[C@H](CCC(N)=O)NC(=O)[C@@H](NC(=O)[C@H](C)NC(=O)[C@@H]1CSSC[C@H](NC(=O)[C@H](CCCCN)NC(=O)CC[C@H](NC(=O)CCCCCCCCCCCCCCCCCCC(=O)O)C(=O)O)C(=O)N[C@@H](CC(N)=O)C(=O)N[C@@H]([C@@H](C)O)C(=O)N[C@@H](C)C(=O)N[C@@H]([C@@H](C)O)C(=O)N1)[C@@H](C)O)C(=O)N1CCC[C@H]1C(=O)N[C@@H](CO)C(=O)N[C@@H](CO)C(=O)N[C@H](C(=O)N[C@@H](CC(N)=O)C(=O)N[C@H](C(=O)NCC(=O)N[C@@H](CCCCN)C(=O)N[C@@H](CC(N)=O)C(=O)N[C@H](C(=O)N[C@@H](Cc1ccc(O)cc1)C(N)=O)[C@@H](C)O)C(C)C)[C@@H](C)O
notes: also called compound 36
B4: N^α1-[2-[2-[2-[[2-[2-[2-[[(4S)-4-carboxy-4-(19-carboxynonadecanoylamino)butanoyl]amino]ethoxy]ethoxy]acetyl]amino]ethoxy]ethoxy]acetyl]-[Arg17,Pro21,Pro27]-h-am … (peptide)
peptide: B1 peptide with E14N
modifications: alpha-amino group of N-terminal Lys1 acylated with C20 diacid via gGlu-2xOEG linker; disulfide Cys2-Cys7; C-terminal amide
notes: h-amylin derivative; disulfide bridge and C-terminal amide as told for human amylin; also called compound 24
B5: N^α1-[(4S)-4-carboxy-4-(19-carboxynonadecanoylamino)butanoyl]-[Arg17,Pro21,Pro27,Arg34]-h-amylin (peptide)
peptide: B1 peptide with E14N, S34R
modifications: alpha-amino group of N-terminal Lys1 acylated with C20 diacid via gGlu linker; disulfide Cys2-Cys7; C-terminal amide
notes: h-amylin derivative; disulfide bridge and C-terminal amide as told for human amylin; also called compound 39
B6: N^α1-[(4S)-4-carboxy-4-(19-carboxynonadecanoylamino)butanoyl]-[Arg17,Pro21,Pro27,Pro31,Glu35]-h-amylin (peptide)
peptide: {C20 diacid-γGlu}-KCNTATCATQRLANFLRHSSPNFGAIPSSTPVGSETY-NH2
modifications: disulfide 2-7
SMILES: CC[C@H](C)[C@H](NC(=O)[C@H](C)NC(=O)CNC(=O)[C@H](Cc1ccccc1)NC(=O)[C@H](CC(N)=O)NC(=O)[C@@H]1CCCN1C(=O)[C@H](CO)NC(=O)[C@H](CO)NC(=O)[C@H](Cc1c[nH]cn1)NC(=O)[C@H](CCCNC(=N)N)NC(=O)[C@H](CC(C)C)NC(=O)[C@H](Cc1ccccc1)NC(=O)[C@H](CC(N)=O)NC(=O)[C@H](C)NC(=O)[C@H](CC(C)C)NC(=O)[C@H](CCCNC(=N)N)NC(=O)[C@H](CCC(N)=O)NC(=O)[C@@H](NC(=O)[C@H](C)NC(=O)[C@@H]1CSSC[C@H](NC(=O)[C@H](CCCCN)NC(=O)CC[C@H](NC(=O)CCCCCCCCCCCCCCCCCCC(=O)O)C(=O)O)C(=O)N[C@@H](CC(N)=O)C(=O)N[C@@H]([C@@H](C)O)C(=O)N[C@@H](C)C(=O)N[C@@H]([C@@H](C)O)C(=O)N1)[C@@H](C)O)C(=O)N1CCC[C@H]1C(=O)N[C@@H](CO)C(=O)N[C@@H](CO)C(=O)N[C@H](C(=O)N1CCC[C@H]1C(=O)N[C@H](C(=O)NCC(=O)N[C@@H](CO)C(=O)N[C@@H](CCC(=O)O)C(=O)N[C@H](C(=O)N[C@@H](Cc1ccc(O)cc1)C(N)=O)[C@@H](C)O)C(C)C)[C@@H](C)O
notes: h-amylin derivative; disulfide bridge and C-terminal amide as told for human amylin; also called compound 28
B7: N^α1-[(4S)-4-carboxy-4-(19-carboxynonadecanoylamino)butanoyl]-[Arg17,Pro21,Pro27,Glu35]-h-amylin (peptide)
peptide: B1 peptide with E14N, N35E
modifications: alpha-amino group of N-terminal Lys1 acylated with C20 diacid via gGlu linker; disulfide Cys2-Cys7; C-terminal amide
notes: h-amylin derivative; disulfide bridge and C-terminal amide as told for human amylin; also called compound 23
B8: N^α1-[(4S)-4-carboxy-4-(19-carboxynonadecanoylamino)butanoyl]-[Arg17,Pro21,Pro27,His34]-h-amylin (peptide)
peptide: B1 peptide with E14N, S34H
modifications: alpha-amino group of N-terminal Lys1 acylated with C20 diacid via gGlu linker; disulfide Cys2-Cys7; C-terminal amide
notes: h-amylin derivative; disulfide bridge and C-terminal amide as told for human amylin; also called compound 40
B9: N^α1-[(4S)-4-carboxy-4-(19-carboxynonadecanoylamino)butanoyl]-[Arg17,Pro21,Pro27,Lys35]-h-amylin (peptide)
peptide: B1 peptide with E14N, N35K
modifications: alpha-amino group of N-terminal Lys1 acylated with C20 diacid via gGlu linker; disulfide Cys2-Cys7; C-terminal amide
notes: h-amylin derivative; disulfide bridge and C-terminal amide as told for human amylin; also called compound 34
B10: N^α1-[2-[2-[2-[[2-[2-[2-[[(4S)-4-carboxy-4-(19-carboxynonadecanoylamino)butanoyl]amino]ethoxy]ethoxy]acetyl]amino]ethoxy]ethoxy]acetyl]-[Glu14,Arg17,Pro21,Pro27 … (peptide)
peptide: B1 peptide
modifications: alpha-amino group of N-terminal Lys1 acylated with C20 diacid via gGlu-2xOEG linker; disulfide Cys2-Cys7; C-terminal amide
notes: h-amylin derivative; disulfide bridge and C-terminal amide as told for human amylin; also called compound 19
B11: N^ε1-[2-[2-[2-[[(4S)-4-carboxy-4-(19-carboxynonadecanoylamino)butanoyl]amino]ethoxy]ethoxy]acetyl]-[Arg17,Pro21,Pro27,Arg35]-h-amylin (peptide)
peptide: K([AEEA-γGlu-C20 diacid])CNTATCATQRLANFLRHSSPNFGAIPSSTNVGSRTY-NH2
modifications: disulfide 2-7 (inferred)
notes: analogue of human amylin; also called compound 38
B12: N^ε1-[(4S)-4-carboxy-4-[[(4S)-4-carboxy-4-(19-carboxynonadecanoylamino)butanoyl]amino]butanoyl]-[Asp14,Arg17,Pro21,Pro27,Arg35]-h-amylin (peptide)
peptide: K([γGlu-γGlu-C20 diacid])CNTATCATQRLADFLRHSSPNFGAIPSSTNVGSRTY-NH2
modifications: disulfide 2-7 (inferred)
notes: analogue of human amylin; also called compound 52

The binders below were run against T1, human amylin 3(a) receptor (human …) (assay: cell-based or functional assay).

Ratio hCT/hAmylin funct.	hAmylin-R funct. EC50 [nM]	Binder
17.4	0.307	B1
8.9	0.386	B2
6.8	0.189	B3

The binders below were run against T2, human calcitonin receptor (assay: cell-based or functional assay).

hCTR funct. EC50 [nM]	Binder
5.32	B1
3.43	B2
1.28	B3

Each binder was assayed against T3, human calcitonin receptor (assay: cell-based or functional assay).

hCTR funct. EC50 [nM]	Binder
10	B4
2.52	B5
2.03	B6
3.02	B7
2.68	B8
2.62	B9
5.32	B10

What follows are binders tested against T4, rat calcitonin receptor (assay: SPA competition with 125I-calcitonin, membranes of BHK cells with rat calcitonin receptor (Assay VIII)).

IC50 [nM]	Binder
38	B11
159	B12

What follows are binders tested against T5, rat amylin receptor (rat calcitonin …) (assay: SPA competition with 125I-rat amylin, membranes of BHK cells with rat calcitonin receptor + rat RAMP3 (Assay VI)).

IC50 [nM]	Binder
0.383	B11
0.335	B12

These binders were tested against T1, human amylin 3(a) receptor (human …) (assay: SPA competition binding, displacement of 125I-rat amylin from membranes of Amylin 3(a)/CRE-luc BHK cells (Assay V)).
How it was run: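 One-site competition analysis of SPA counts yielded IC₅₀ as a measure of affinity. Membranes were at 35 ng/μL final; incubation was 120 min at 25° C, pH 7.4.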

IC50 [nM]	Binder
0.556	B1
0.597	B2
0.403	B3
